This is an account of results in patent US20250297018A1, “IL-18BP ANTAGONIST ANTIBODIES AND THEIR USE IN MONOTHERAPY AND COMBINATION THERAPY IN THE TREATMENT OF CANCER” (Compugen Ltd., priority 2022, published 2025).

One data set concerns B16/Db-hmgp100 melanoma. Description: Syngeneic B16/Db-hmgp100 mouse tumor model. The format is in vivo. The note with it: anti-PVRIG combination study, vs isotype control mAbs. On the procedure: B16/Db-hmgp100 cells were kindly provided by Dr. Hanada et al. (HHS agency) and were licensed from NIH. B16/Db-hmgp100 cells were generated by double transduction of B16F10 with H-2 Db and a retrovirus that encodes chimeric mouse gp100 that is comprised of the human gp10025-33 and the rest of mouse gp100. Cells were cultured in RPMI 1640 (Biological Industries, 01-100-1A) with 10% FBS (Biological Industries, 04-127-1A), and 100 μg/mL penicillin/streptomycin (Biological Industries, 03-031-1B), 1% Glutamax (Life technologies, 35050-038, 1% Sodium pyruvate (Biological Industries, 03-042-1B), 0.01% 2-mercaptoethanol (Life technologies, 31350-010, 10 μg/ml Blasticidin (InvivoGen, ant-bl-05). 1×10^5 B16/Db-hmgp100 cells subcutaneously into the back right flank of mice. […]
At day 4 post tumor inoculation mice were treated with mAbs (as detailed below) injected on day 4, 7, 11, 14, 18 and 21 post inoculation. Tumor growth was measured with caliper every 2-3 days. […]
Two-way ANOVA with repeated measures, followed by two-way ANOVA with repeated measures for selected pairs of groups using JMP (Statistical Discoveries™) software. Analyses of tumor growth measurements were performed by comparing tumor volumes measured on the last day on which all study animals were alive. Statistical differences in percentage of mice tumor free were determined by a Log Rank Mantel-Cox test. […]

In a further data set the target is T1, IL18-BP (Mus musculus, UniProt Q9Z0M9).
T1 sequence (Q9Z0M9 29-193): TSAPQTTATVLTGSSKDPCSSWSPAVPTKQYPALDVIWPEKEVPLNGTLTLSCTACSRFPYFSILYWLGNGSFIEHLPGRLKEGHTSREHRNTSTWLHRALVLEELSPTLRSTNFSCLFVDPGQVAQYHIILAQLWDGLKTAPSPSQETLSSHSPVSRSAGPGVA
Particulars: cited from earlier work.

The nature of data set [1]: MC38ova tumor-bearing mice treated with anti-mIL18BP or engineered mIL-18: weight, serum cytokines, spleen. The data set is classed as in vivo, mouse. On the procedure:
Experiments were performed in C57Bl/6 (female, 6-8 wk, Envigo). Mice were anesthetized with 10% Ketamine and 10% Xylazine mixture injected intraperitoneal. Next, mice were inoculated with MC38ova cells (1.2×10^6) subcutaneously to the right flank in 50 μl/mice.
Spleens were harvested from mice 24 hours after the 4th treatment and weighed. For IL15 experiments, mice were treated with a single dose of 0.5 μg, 1.5 μg of IL15, or with a mix of 0.5 μg IL15 and 2.33 μg IL15R.

B1: BOJ-5G4-F4: Anti PVRIG mAb 407 mAb mouse IgG1 (antibody, V domains shown)
VH: QVQLQQSGAELAKPGSSVMISCKASGYTFTNYAVHWIKQTTGQALEWTGYIAPGSGVTKYNEKFKGKATLTVDKSSTTAYMQLSSLTPVDTAVYYCASGTTRFAYWGQGTLVTVSS
VL: DIVLTQSPALAVSLGQRATISCRASQSVSLSSYNLMQWYQQKPGQEPKILIYDASNLPSGIPARFSGSGSGTDFTLTIDPVQADDIATYYCQQSKDDPLTFGSGTKLEIK
As to B1, the Tumor growth entry in the data set with B16/Db-hmgp100 melanoma was “comparable tumor growth to mice treated with isotype control mAbs”.

B2: Engineered IL-18: engineered IL-18, sequence from US 20190070262A1, listed therein as mCS2 (SEQ ID NO: 61) (protein)
chain: HFGRLHCTTAVIRNINDQVLFVDKRQPVFEDMTDIDQSASEPQTRLIIYAYGDSRARGKAVTLSVKDSKMSTLSCKNKIISFEEMDPPENIDDIQSDLIFFQKRVPGHNKMEFESSLYEGHFLACQKEDDAFKLILKKKDENGDKSVMFTLTNLHQSHHHHHH
B2: the “Binding to IL18-BP” value with IL18-BP was “shown not to bind IL18-BP”. Further, the “Serum levels of IFNg, TNFa, MCP1 and IL6” value in data set [1] (4 hours after the 4th treatment, 0.32 mg/kg SC) is “elevated serum levels of IFNg, TNFa, MCP1 and IL6”. Further, the “Serum levels of IL18” value in data set [1] (4 hours after the 4th treatment, detection identifies also engineered IL18) is given as “very high serum levels of IL18”; in data set [1] (by 24 hours after the 4th treatment), “returned to baseline”. Also, in data set [1] (24 hours after the 4th treatment), the “Serum levels of IFNg” value was “elevated serum levels of IFNg”. Also, the “Spleen enlargement compared to control” value in data set [1] (24 hours after the 4th treatment, average) was 4.9 folds.
